The record followed here is US20220265759A1, “COMPOSITION AND METHOD FOR PROMOTING WOUND HEALING” (THE BOARD OF TRUSTEES OF THE UNIVERSITY OF ILLIOIS, priority 2019, published 2022).

In series [1] the test system is eNOS and CCR10 interaction with LAMP1. Nature of the series: eNOS internalization and degradation in HDMVECs stimulated with CCL28 (Co-IP with LAMP1, confocal microscopy). The format is cell-based, human. The note with it: HDMVECs. Here is the method: (§1) Co-IP Experiments, cells or mouse wounds were collected after treatment, and lysed in 2% ODG in Tris buffer. The homogenates were further prepared for Co-IP experiments as described in the art (Chen, et al. (2018) Mol. Biol. Cell 29(10):1190-1202; Chen, et al. (2020) FASEB J. 34(4):5838-5850; Chen, et al. (2015) Ann. Rheum. Dis. 74:1898-1906).
Confocal Microscopy. For cellular immunostaining, confluent monolayers of cells grown on coverslips were prepared as described previously (Chen, et al. (2012) Mel. Biol. Cell 23(7):1388-1398). Fluorescent images were obtained using a Zeiss LSM 880 confocal microscope. The co-localization coefficient in specified regions of interest (ROI) were determined using Zeiss Zen software. Briefly, using the Overlay tool, the desired ROI was drawn along the cell edge and the values for the ROIs tabulated. The scatterplot and table were automatically adjusted to the pixel distribution for the selected ROI. The data from different treatment groups were collected and analyzed for statistical significance as described previously (Chen, et al. (2020) FASEB J. 34(4):5838-5850). […]
Since myristoylated 7 amino acid CCR10-binding domain (Myr-CBD7) peptide can block eNOS interaction with CCR10 and increase eNOS activity in HUVECs, it was assessed whether Myr-CBD7 can prevent eNOS internalization and degradation in HDMVECs following CCL28 stimulation. […]

The subject of series [2] is HUVECs. Nature of the series: NO production in HUVECs. The format is cell-based, human. The following applies: 500 ng/ml. Here is the method: Nitric Oxide (NO) Measurement with DAF-FM Diacetate. Confluent HUVEC monolayers on 96-well plates were loaded with 2.5 μM DAF-FM and incubated for 45 minutes at 37° C. NO concentration was measured using a SpectraMax Microplate Reader (Molecular Devices, San Jose, Calif.) as described in the art (Chen, et al. (2020) FASEB J. 34(4):5838-5850).
(§2) NO production was also observed in HUVECs following treatment with 500 ng/ml human recombinant CCL28, the ligand for CCR10. The signaling pathways activated by CCL28 binding to CCR10 in endothelial cells were further investigated.

Series [3] has as its system eNOS, p85 (PI3K), Src kinase, ERK (MAPK), β-catenin, Bcl-2. Nature of the series: Immunoblot of CCL28 signaling in endothelial cells. The format is cell-based, human. Here is the method: Immunoblot and Co-Immunoprecipitation (Co-IP). After serum starvation, inhibitors were added 45 minutes prior to stimulation for indicated times at 37° C., and cells were then collected and lysed for western blot analysis. After probing for p-eNOS (Ser1177), p-p85 (Tyr458), p-Src (Tyr 416), and p-ERK (T202/Y204), the same blots were stripped and re-probed for total proteins mentioned above. For detection of CCL28-induced protein levels of β-catenin and Bcl-2, near-confluent endothelial cells were incubated with 500 ng/ml CCL28 for 24 hours in EGM-2 medium containing 1% FBS.
as §2
The role of CCL28/CCR10 signaling pathways was further investigated in angiogenesis. Pretreatment of cells with 10 μM wortmannin (PI3K inhibitor), 5 μM U0126 (MAPK/ERK inhibitor), 1 mM L-NAME (eNOS inhibitor), 10 μM PP2 (Src kinase inhibitor), and 10 μM STO-609 ([…]) reduced endothelial cell tube formation induced by 500 ng/ml CCL28. […]
On the technique in general: A western blot detects proteins with antibodies after separation by electrophoresis.

Series [4] has as its target T1, CCR10-eNOS interaction (Homo sapiens, UniProt P46092).
T1 construct: host or cells: HUVEC (primary human umbilical vein endothelial cells)
T1 sequence (P46092 1-362): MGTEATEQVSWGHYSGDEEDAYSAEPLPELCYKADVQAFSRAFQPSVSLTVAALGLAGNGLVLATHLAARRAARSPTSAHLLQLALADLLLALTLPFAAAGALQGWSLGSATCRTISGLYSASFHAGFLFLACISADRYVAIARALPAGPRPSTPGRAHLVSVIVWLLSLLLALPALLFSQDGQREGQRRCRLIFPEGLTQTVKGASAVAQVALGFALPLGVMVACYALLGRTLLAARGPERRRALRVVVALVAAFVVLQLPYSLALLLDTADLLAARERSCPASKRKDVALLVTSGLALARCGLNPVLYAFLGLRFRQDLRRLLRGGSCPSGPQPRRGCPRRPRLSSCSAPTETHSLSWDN
Nature of the series: Ligand-induced CCR10-eNOS interaction in HUVEC (Co-IP, confocal co-localization). The format is cell-based. The following applies: plasma membrane ROI, stimulation for 5 minutes; untreated control cells 43%. Here is the method:
as §1
Confocal Microscopy. For cellular immunostaining, confluent monolayers of cells grown on coverslips were prepared as described previously (Chen, et al. (2012) Mel. Biol. Cell 23(7):1388-1398). Fluorescent images were obtained using a Zeiss LSM 880 confocal microscope. The co-localization coefficient in specified regions of interest (ROI) were determined using Zeiss Zen software. Briefly, using the Overlay tool, the desired ROI was drawn along the cell edge and the values for the ROIs tabulated. […] The data from different treatment groups were collected and analyzed for statistical significance as described previously (Chen, et al. (2020) FASEB J. 34(4):5838-5850).
To investigate whether CCR10 interacts directly with eNOS, primary culture HUVEC were collected and prepared for co-immunoprecipitation (Co-IP) to assess CCR10-eNOS interaction following stimulation with 5 μM A23187. […] Co-localization coefficient in the regions of interest (ROI) in the plasma membrane were quantified from Zeiss LSM 880 confocal microscope images using Zeiss Zen software.

Series [5] addresses T2, eNOS-CCR10 interaction (Homo sapiens, UniProt P46092).
T2 construct: host or cells: HDMVEC (human dermal microvascular endothelial cells)
T2 sequence (P46092 1-362): T1 sequence (P46092 1-362)
T2 sequence (P29474 2-1203 partner limits assumed): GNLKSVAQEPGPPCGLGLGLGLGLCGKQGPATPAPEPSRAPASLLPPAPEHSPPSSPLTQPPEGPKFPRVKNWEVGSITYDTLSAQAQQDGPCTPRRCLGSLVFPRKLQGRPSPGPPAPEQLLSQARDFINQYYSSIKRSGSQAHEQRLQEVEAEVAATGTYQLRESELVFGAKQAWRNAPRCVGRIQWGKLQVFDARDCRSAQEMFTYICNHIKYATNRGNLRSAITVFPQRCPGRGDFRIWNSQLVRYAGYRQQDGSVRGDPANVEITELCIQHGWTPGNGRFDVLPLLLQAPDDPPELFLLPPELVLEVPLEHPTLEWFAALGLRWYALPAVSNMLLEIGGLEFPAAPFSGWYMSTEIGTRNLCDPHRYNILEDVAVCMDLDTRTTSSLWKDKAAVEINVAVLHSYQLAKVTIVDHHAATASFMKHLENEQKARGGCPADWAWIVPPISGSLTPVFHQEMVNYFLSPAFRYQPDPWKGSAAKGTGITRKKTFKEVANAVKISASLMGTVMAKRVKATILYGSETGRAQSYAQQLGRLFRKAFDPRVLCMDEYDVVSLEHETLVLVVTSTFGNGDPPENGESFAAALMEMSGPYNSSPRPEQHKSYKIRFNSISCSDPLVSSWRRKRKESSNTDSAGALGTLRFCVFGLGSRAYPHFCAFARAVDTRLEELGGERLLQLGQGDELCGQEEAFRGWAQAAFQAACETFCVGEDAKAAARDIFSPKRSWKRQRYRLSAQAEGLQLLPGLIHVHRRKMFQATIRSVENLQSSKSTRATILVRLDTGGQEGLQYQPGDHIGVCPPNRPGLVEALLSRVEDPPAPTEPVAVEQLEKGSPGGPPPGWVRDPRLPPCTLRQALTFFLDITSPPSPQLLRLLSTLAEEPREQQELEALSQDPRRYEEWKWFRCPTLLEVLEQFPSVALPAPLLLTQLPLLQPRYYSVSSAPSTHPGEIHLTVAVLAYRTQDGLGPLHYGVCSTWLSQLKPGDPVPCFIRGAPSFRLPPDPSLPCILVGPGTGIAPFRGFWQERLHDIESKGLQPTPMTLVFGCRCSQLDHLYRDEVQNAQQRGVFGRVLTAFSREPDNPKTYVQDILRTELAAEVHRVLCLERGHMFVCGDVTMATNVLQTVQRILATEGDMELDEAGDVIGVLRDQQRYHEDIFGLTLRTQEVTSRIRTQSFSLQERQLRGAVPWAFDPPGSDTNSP
Nature of the series: CCL28-induced eNOS-CCR10 interaction in HDMVECs. In kind it is cell-based. The note with it: 500 ng/ml.
Source text: as §1
It has been shown that CCR10 is highly expressed in human umbilical vein endothelial cells (HUVECs) and human endothelial progenitor cells (EPCs) (Chen, et al. (2020) FASEB J. 34(4):5838-5850). In order to understand whether the CCL28/CCR10 signaling axis in dermal microvessels plays a role in wound healing, 500 ng/ml CCL28 was administrated to human dermal microvascular endothelial cells (HDMVECs). eNOS-CCR10 interaction increased with maximum binding observed at 5 minutes, similar to that observed in HUVEC (Chen, et al. (2020) FASEB J. 34(4):5838-5850). […] Upon stimulation with CCL28 for 5 minutes, CCR10 co-localized to a greater extent with eNOS on the plasma membrane.

B1: CCL28: human recombinant CCL28, the ligand for CCR10 (protein)
chain: ILPIASSCCTEVSHHISRRLLERVNMCRIQRADGDCDLAAVILHVKRRRICVSPHNHTVKQWMKVQAAKKNGKGNVCHRKKHHGKRNSNRAHQGKHETYGHKTPY
For B1, the “eNOS co-localization with EEA1” value in series [1] (500 ng/ml for 90 minutes, preliminary analyses) was “more co-localization”. In series [1] (3 hours treatment), the “eNOS and CCR10 association with LAMP1 (co-IP)” value is given as “associated with LAMP1”. Also, in series [2], the NO production entry is “observed”. Besides, the “expression levels of β-catenin and Bcl-2” value in series [3] (stimulation of endothelial cells for 24 hours) is given as “enhanced”. In series [3] (treatment for up to 60 minutes), the “Phosphorylation of eNOS (Ser1177), p85 (Tyr458; PI3K), Src kinase (Tyr418), and ERK (T202/Y204; MAPK)” value is on record as “significantly increased”. For the same molecule, the “Co-localization coefficient of CCR10 and eNOS” value in series [4] was found to be 78%. In series [5], the eNOS-CCR10 interaction result was “increased” and the “time of maximum eNOS-CCR10 binding” value was found to be 5 min.
